Molecular target: receptor for advanced glycation end products (human (endogenous in MDA-MB-231)) (UniProt Q15109)
Sequence of UniProt Q15109 (Q15109 23-404): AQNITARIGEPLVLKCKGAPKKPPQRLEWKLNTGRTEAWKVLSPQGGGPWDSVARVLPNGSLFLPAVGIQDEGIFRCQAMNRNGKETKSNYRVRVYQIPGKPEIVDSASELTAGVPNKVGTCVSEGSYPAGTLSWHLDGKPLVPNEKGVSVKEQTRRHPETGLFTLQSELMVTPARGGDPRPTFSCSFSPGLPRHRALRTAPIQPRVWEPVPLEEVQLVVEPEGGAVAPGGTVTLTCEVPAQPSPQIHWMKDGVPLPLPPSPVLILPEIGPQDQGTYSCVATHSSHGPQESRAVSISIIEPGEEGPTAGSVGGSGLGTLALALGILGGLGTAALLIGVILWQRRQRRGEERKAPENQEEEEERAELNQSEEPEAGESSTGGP

## recombinant human Ac-APE1/Ref-1 (from UniProt P27695 1-318) (natural protein)
  DNA fragmentation of hyperacetylated MDA-MB-231 cells treated with rh Ac-APE1/Ref-1 after pretreatment with anti-APE1/Ref-1 antibody (2 µg, 2 h), against anti-IgG treated cells: 35%
  cell viability of hyperacetylated MDA-MB-231 cells treated with rh Ac-APE1/Ref-1 after pretreatment with anti-APE1/Ref-1 antibody (2 µg, 2 h): 72.8%

Reference: publication PMC5992149
